Data as given in publication PMC8495200, “Domain Organization of the UBX Domain Containing Protein 9 and Analysis of Its Interactions With the Homohexameric AAA + ATPase p97 (Valosin-Containing Protein)” (Frontiers in Cell and Developmental Biology, 2021).
Values joined by “and” are separate entries in the source; they are usually repeats but may differ in a detail not shown here. Identical values can stand only once.

B1: p97 (valosin-containing protein), D. discoideum, recombinant (enzyme, UniProt P90532 1-793, looked up)
chain: MATIEDTSKDNNNPILERKKAPNRLFVEEAINDDNSVVTLNPETMDQLQFFRGDTLLIKGKKRRDTVCIVLSDPTIDPSKIRMNKVVRNNLRVRLGDMISVHQCSDVKYGKRIHVLPIDDTIEGLSGNLFDLYLKPYFLEAYRPVRKGDLFLVRGGMRAVEFKVVETDPGEYCIVAPETFIHCEGEAVKREDEDRLDEVGYDDIGGVRKQLGQIRELVELPLRHPQLFKNIGVKPPKGILLYGPPGCGKTMIARAVANETGAFFFLINGPEIMSKLAGESESNLRKAFEEAEKNAPSIIFIDEIDSIAPKREKTQGEVERRIVSQLLTLMDGLKSRAHVIVMGATNRPNSIDPALRRFGRFDREIDITIPDATGRLEIMRIHTKNMKLDETVDLEAVANETHGYVGADLAALCTESALQCIREKMDVIDLEDETISAEILESMSVTQDHFRTALTLSNPSALRETVVEVPTTTWEDIGGLEGVKRELRETVQYPVEHPEKFRKFGMQPSKGVLFYGPPGCGKTLLAKAIANECQANFISIKGPELLTMWFGESEANVRELFDKARQAAPCVLFFDELDSIARSRGSSQGDAGGAGDRVINQILTEMDGMNAKKNVFIIGATNRPDIIDPAILRPGRLDQLIYIPLPDLPSRVAILKACLNKSPVAKDVDLEFLGQKTQGFSGADLTEICQRACKLAIRESIEKDIESTKARQESGDTKMEDDSVDPVPEITRDHFQEAMRSARRSVSDNDIRKYESFAQTLVQSRGLGNNFKFPDQESSGQFNQDQSDDLFSN
notes: AAA+ ATPase p97 (VCP), D. discoideum; purification as in Rijal et al., 2016; Whether p97 was made as a GST fusion and cleaved is not clearly said; also called VCP; source: E. coli XL1 Blue or ArcticExpress, purified
B2: UBXD9, full length, GST tag cleaved (natural protein, D. discoideum, UniProt Q54X06 1-573, looked up)
chain: MSSIHIIYKTGKTTVPVIASTVMMEVLKKACQYFKIDDSRFQLMYGSTYVNLSLPFRLSGIPNLSRVTIMEKKGASISTVKIAIQMDDGKRFQSNFKTSSTLWDILLTFETEQNLSLTKRFNDVNQYIEPVVTILNREISTIESLQKSSLASINVNEASLIKLTFKQTDRTNEEVLPIIVSYQSPSTPTESPTTTTTTTTTTTTNNTTKEESPKTTNSPTNSESSTKSQNSSGSQQSPIIISPPTQQSTSSDVSTPTMDIDSPLVKNVEKSPISDLGLNPSSNIPLPDKTYNNETTTTTTTTSNNDVQVSTPPKIATMDHKDRELLVYTPSNNQVDPKSIRHNEKMTEEDIKRLVEANKRVKKEKEEFDSVLRTKAMREREAYKKHKNFSTSIIRIVFPGGQKILEMKFLIREKISNLLKYINEYILAQPNDSVYLYTTPPNKTLDLNTTFLKEGLFPRAKIFLGVSPGTTLIFSELVNELIEESNNKNNNNNNNNNTTTTTTSTISQEELDKQEEEQERIEEQMKIEEEKQLKLEDEQEKERQRALRSMFNNEKEGDSQKRPVPKWFTAGKK
notes: The cleaved state is stated for the Blue Native PAGE; also called full-length UBXD9; source: E. coli XL1 Blue or ArcticExpress, purified, liberated from the beads with PreScission protease

Target: the molecule itself
Assay: native gel or EMSA; Blue Native PAGE, purified recombinant non-tagged proteins in 1 x PBS, 1 mM DTT, 1 mM ATP; 4-16% Bis-Tris gels, cold room, Coomassie staining

Protein | stoichiometry N
B1 | 6 and 2
B2 | 6
